Data: IntAct's records for PubMed 11483516

B1: STAM-binding protein (Homo sapiens), O95630 (parent)
chain: MSDHGDVSLPPEDRVRALSQLGSAVEVNEDIPPRRYFRSGVEIIRMASIYSEEGNIEHAFILYNKYITLFIEKLPKHRDYKSAVIPEKKDTVKKLKEIAFPKAEELKAELLKRYTKEYTEYNEEKKKEAEELARNMAIQQELEKEKQRVAQQKQQQLEQEQFHAFEEMIRNQELEKERLKIVQEFGKVDPGLGGPLVPDLEKPSLDVFPTLTVSSIQPSDCHTTVRPAKPPVVDRSLKPGALSNSESIPTIDGLRHVVVPGRLCPQFLQLASANTARGVETCGILCGKLMRNEFTITHVLIPKQSAGSDYCNTENEEELFLIQDQQGLITLGWIHTHPTQTAFLSSVDLHTHCSYQMMLPESVAIVCSPKFQETGFFKLTDHGLEEISSCRQKGFHPHSKDPPLFCSCSHVTVVDRAVTITDLR
partner: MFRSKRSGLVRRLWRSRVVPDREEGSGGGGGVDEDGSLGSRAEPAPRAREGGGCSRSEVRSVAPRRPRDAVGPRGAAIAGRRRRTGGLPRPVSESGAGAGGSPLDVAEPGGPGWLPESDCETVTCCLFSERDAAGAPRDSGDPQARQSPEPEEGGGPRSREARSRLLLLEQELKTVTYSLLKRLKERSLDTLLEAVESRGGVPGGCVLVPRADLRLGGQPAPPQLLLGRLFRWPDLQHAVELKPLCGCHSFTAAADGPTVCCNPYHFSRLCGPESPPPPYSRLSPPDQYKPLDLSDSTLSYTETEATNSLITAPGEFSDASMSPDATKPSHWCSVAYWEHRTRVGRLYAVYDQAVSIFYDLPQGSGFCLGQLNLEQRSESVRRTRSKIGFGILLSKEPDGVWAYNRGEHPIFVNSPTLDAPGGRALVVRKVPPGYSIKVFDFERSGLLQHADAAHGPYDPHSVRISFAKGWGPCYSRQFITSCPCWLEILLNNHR

Variants of: B1
Conditions: with smad6_mouse Smad6, O35182

| Variant | effect of a mutation on the interaction |
| --- | --- |
| MSDHGDVSLPPEDRVRALSQLGSAVEVNEDIPPRRYFRSGVEIIRMASIYSEEGNIEHAFILYNKYITLFIEKLPKHRDYKSAVIPEKKDTVKKLKEIAFPKAEELKAELLKRYTKEYTEYNEEKKKEAEELARNMAIQQELEKEKQRVAQQKQQQLEQEQFHAFEEMIRNQELEKERLKIVQEFGKVDPGLGGPLVPDLEKPSLDVFPTLTVSSIQPSDCHTTVRPAKPPVVDRSLKPGALANAEAIPTIDGLRHVVVPGRLCPQFLQLASANTARGVETCGILCGKLMRNEFTITHVLIPKQSAGSDYCNTENEEELFLIQDQQGLITLGWIHTHPTQTAFLSSVDLHTHCSYQMMLPESVAIVCSPKFQETGFFKLTDHGLEEISSCRQKGFHPHSKDPPLFCSCSHVTVVDRAVTITDLR [S243A;S245A;S247A] | increasing interaction |
